Results from the NTF2 design screens of Basanta et al. (2020).

assay: protease stability score; higher = more stable; yeast display proteolysis, trypsin and chymotrypsin;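 also: log10 excess protease needed over predicted unfolded state with 0 meaning unfolded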

Row | Sequence | protease stability score
1 | DEDDVNKAHNILKHGDWEKFASQADENVRIHIGNKEVNGRERASEVLKLIRDRVDSEEIKRMSFHGDKVVVDAEQVVNGKKVRFVIRVKAHNGRIKQMDFQFRNEEDKKKFDEAVN | 0.477
2 | DEDDVQHAQKLVEENDEDKLKRMFPPDARAHIGDKEVHGMDKWADILKTLHHKADSVHFKHVSVSGNSVNVNFVMVVDGQSIEFVLVIDVHNGRARRLRIDFRNEEQQKLFEKLIS | 1.3
3 | DEDDVRRVAEQIVQALEKGDEQRMMELADPNAKARVGEKDYHGREDLHKIVKELKDDFDHARVESVEVDGDKVVIHMVVKSNGKDRRMIIRFRVHNGKVTEMEFRTG | 1.75
4 | DEDDVRRVHEMIRAEETNNEHQVKDLMDENARMVVGDQEITGMDHILKFIRETNKEIDIELRLRDVKVSNGNVHVTARVRFTVNGKPVDRSAKMEVQVENGRIQDVQKRFPTEWKRERHK | -0.03
5 | DEDDWKKFMKFLKNLRNGDDEQAAKQADPNARFEYGDETIHGREHFRKHVKDTKDHARYSFNLKDYRVTPGRIEARMDVHSMENGRPDSNDVVLILSLSNGRIKKVEMKQVS | 0.063
6 | DEDDWRKRMKKVVEVLRTGNPDTMVDMVDENAKAKYGDKEYHGREQIHKWMEDRQKRYDHVNVKHMHIQGNKVNISAVYVVNGRSEDRQLQVVFDNGKIKSMRVTEQ | -0.053
7 | DEDEARKVMKKWQEVVQKGDPDDVRKLYKPNVKWEAADTRRQGVDVVVEQMKKVQDKGVEFQVRKAKVEGDRFQVVYDVKLGNDTATFTVQVEARGGQIDEVRAKVDEKAYKVMKKG | 0.123
8 | DEDEARTWANRMRKIIKEGDPKKMRHQLDKDAKAQVGDDTVHGRDKVVQLLQHILEHVDHVEIQHVEAQGNEVDIQVKLTVNGRDDSLKFDIKYHNGRVKTIRVQEQ | -0.084
9 | DEDEATKVATNMQEILETGNPDEAAKLADKDVRVVVGDKDVHGSENLKDMMRELRERADHLRVVDMHSHGEKFVLLVIIEHNGRRHQVNIVMTIDNGRIKSLSITSG | 1.87
10 | DEDEDDKMRKLIKTNNPQEIAQNADPNVEATVGNKTYHGREQMQQIAEIFRTMADHVHVDRVDADNGHVSAHRVITVNGHKVNVKVRFNISNGRIKRQEIDVTSEQDHRELEKNYN | 0.162
11 | DEDEDIRSWMKQFEEVVKTGDSKHAADMFDKNAKMQYGDKTYHGRDDVKSVLDHLLRRADHVRLELLDVKSNGESVHAVMLITFVVDGQTDSYHVELVFVVDNGRRNLHTATTK | 0.872
12 | DEDEDKRIQEVLEQNDFETLSKQADENAKVQYGDTEVHGRRKAYEYLRRLKRSIDHIHYHSIHVHNGRAKMTAEAHFNGRKAVFIVVLQFENGRIRMVVFRATDSRIKKIIKEALN | 0.988
13 | DEDEEETLAQTWIKLMETGDPEQNMENVDPNVKVTYGDKTLHGREQFSDWEKKLHERVDRIEIKKMDVHNGSIRIVVVNDVNGKTKRFVVHLIYENGRLKSAKETDQ | 0.413
14 | DEDEEKRIRKYIKQQETGDPDKLNKYFDKDVHLHVGDKEVKGDEQANRELEHKFRKLRYSFEVKKLEVSNGKVEVKYHATVESNGKPHTYEVSADATLHNGRLQSQVNNERG | -0.021
15 | DEDEERDFEEMWKVFHKGNPDDYKKMIDKDVEIRIGDKTVHGREEIVRQVHHEMNNINFQLQSVDIRVTNGRVEIDVRYVSNVNGRPDTIRYTYHASASNGKLKTAEYRISEDQQNRHRR | -0.273
16 | DEDEERKAVERFLDALKTGDPDKFKKLVDPNVNIQVGDKEINGREQYAHEVHRRKKRADHLEVEHVNVKNGKVQIFVVINVDGRSHHYVLDAHIHNGRIVEMKVEHQ | 0.08
17 | DEDEERKVVHSIMHALEKGDEQKAVDLMDPNVKVIIGDKEISGRERVRDVAQELRKRIDHLRVKTLDVKNGQARAVAEVEHNGQERRIEFNMQLDNGRVKDMRIQER | 1.09
18 | DEDEERQFAKDLMRAMEKNDPKLLVKLADKDVSINYGEKQVHGKRQAEQLMRDLHKRVDDIKVRHVSMHNGSLTINLVLNVNGHNENLVAIVRVENGRIKSLTFEHR | 0.861
19 | DEDEKMKRAMKKLNEVQNTGNEKTLANLMDPNARMDIGDKRYHGREQVTTAVKDIQRRVDHVEWRLTDLKQDGDKLDAKADVIFRTNGTQTNRHADMKLRDVNGQLVIVEYVIS | -0.093
20 | DEDEKRELARRFAKNFLHGDHDNIRDLADKDVDAQVGDQTFTGTEQLMRVVKEVRDRVDHFNLTSVDVHNGQADIHARAKVNGRDYRVKIRIKIHNGRILHVQFNRR | 1.18
21 | DEDEKRKAEHLVRDGSFEELKDLMDENAKVRYGDKEFKGREQAQDAMRQMSRAVDSITVKSLDMQGDTVTARAQLTYNGQHYDVVIQMVVNNGRIKQFVVVVRDPKQKRTLENLRQ | 0.567
22 | DEDEKTKLAEQAKDILQEGNFHEMMHLADENAKVVYGDRRYDGREKVHKVLRDFDDRVDKIDVKRVRVENGRAKIVADVEHDGQRTTVIIHIQAHNGKIRRIRFHTP | 0.586
23 | DEDEKVRQLVRDLIEALRTNDQKRWVELADKDARLKVGDKSYHGREELAKQMKKLREHVDHVTMRVKRVEVHNGRISVDATLTYDINGKKNHQTVKMQFRRHNGQIRLVQIEME | 0.174
24 | DEDELAQKLVEQMVKAIRHGDPHDFVKMIDKNATMDVGDKRLHGREKLEEFIKKLVDKYDHLDAKVSHMDLDNGQIKVNIEIHLVKNGKTDHITLDARADVTNGDARFVDFQWR | 1.47
25 | DEDELQRFAEQVNRVVRQGDPKQAERLFDENARVQIGDKTYHGREDISKMIENQRRRVDHIKVRRIDVQGNELVIHLVYNVNGQEHRNVLVFELHNGKIESAHRTDG | 0.959
26 | DEDEMKNVLELIRVMSKGDEDRIRERADPNVKVNIGDKRLQGREELARQASTEKKKMDIHIRVDSVHVHDGNVLIVYKRENHYNGEPNRDEQRFQAQASNGNLKNMSWRFDEDKKRKIET | -0.038

Row | Sequence | protease stability score
27 | DEDENNKILESINTNDSKHNKDLLDKDVTIRYGDKQVQGREEALEFLDTWNKRVDHFRVHHMTVKGDKLRMRFEIVFNGVTVEVSLSAKVENGRMKHFHLDARDEKVRHRLKRMFG | 0.108
28 | DEDEQKVAKTFVEAVRQGDEKQIDDLADPNVRLRVGDKTLHGRDQLREHVRQMKEELKVEWSVQHVDFSDGRARIHAEMRVDVNGKPVTDDVTFFIEVKNGKVKNVEIHMDESVKREAEQ | 0.548
29 | DEDEQRKIDETMHRLMEENNFDQLARTADENVRIVIGDKTYRGREQAVSAFRKLREHVDHADVKSVEIRNGRVLIKARLSFNGRTADVVFTFQFTNGRIQWAEVDPHAVRNARE | 1.06
30 | DEDEQRTLVEQLARAIQQGDEDQVRKLADPNAKARYGDHEIHGHDQLAHVVRQLKDQVDSIEVESFSVRNGRAELDIRFDVNGRDVKITINAEIRNGRMKHVEFQYTNEDQEKTANR | 0.948
31 | DEDERAEKMARTAQEILETGDEEKAKRLFPPNARAKVGDRTYHGREDIVKHLKELWDRADHVRVEIKSFRVRGDNVHVVMTLVFTYNGKNETQQLTMIFVHVNGRQVAQDMKIG | 0.671
32 | DEDERQDLARKYNKALKQGDSKKFEELVDKHVKVEVGETRFHGREQASKNFRELVDNFDEFEVKSLEVHGESVTVEAVARINGRTANIRFQRTIHNGKNQVVKLNPDDMRRNLK | -0.134
33 | DEDETAKRVNDKAREAAETNNPKQFEELADPNVRMVIGDKEWRGRRQLSHWYKEMADRADHMQVDYQDVHVSGDKVTLHVQINLESNGHSEIKTLIVVMVVHNGRLRAQSQWEQ | 0.534
34 | DEDEVEKIATTIKDVIQEGNFRQLEKLADPNAKVVIGDKTYRGRDAMRHAAQLLQQRADHITVQTVHVHGNKVEAHLRATVNGRDVHFVVKVTLENGRIKNMKIEYTDEDKFKEMVG | 1.31
35 | DEDEVKEVLKRIKSNDWHTLAKQADENARAVVGDKTYHGRTQMKKWMDKVRKRVDHIEISKVKQEGDKAVVDLVFQVNGVKVHLVIYIHVHNGKVVDVQAKARNEEELHKLKKAVS | 0.331
36 | DEDEVRKAKKYIENWEQGNPKDLQEQADENASAQYGDKRIHGMTKIAKFVHKEHEESRVEIQDVQIEAHNGTVHIEIRAIFDHNGKPSQKKVFMSMTMHNGKVKDAELHSDK | 0.155
37 | DEDEVRKIAEDVLRIIETGNPDDAMEQADENAEVIVGDKTYSGRTELRKVIHHMREKVDHMQVKSYDAHGNKATAVFILDNNGRKDEHVVYFDFHNGRLKKVNIQKK | 0.243
38 | DEDEWRKIWTVFENNDPRKFKTMVDKHAHAEVGDTEFHGREQIQHYFERLIRRVDHIEYKSVNIHGDKMRAEVVLNVDGQNLRYVYEVTVHNGRIKMMRIRFTDEEVERQMKRIVK | 0.209
39 | DEDEYAHQVAQELRKAMETGDSDRIARLFDENAELRVGDKVWHGRDQIRKYWHEWLRRADTVDVKIDEVDVEGDKARAHIRVRAEDNGRHQEFTVKMTLKNKNGRAKITSMHVS | 1.57
40 | DEDFDTQLEEMLKNILNGNTEEIDKYADPNVKLEVGDHEYHGREHVKENWKEELDHMDVEVKSVHISARDGRAHVNLEFVVNIDGRPRHVKVREEFVWKNGKLKRANRHFSEEVKRQLER | 0.677
41 | DEDFMNKFEELLRNQQTGDPQFVADQADPNARWNVGDKQLHGRHQIRHQAKTESDQMEVQIDRMDVKVQNGHIDARINRQSNENGRPSRNELDQTVHYHNGKLKQLDESTSH | -0.44
42 | DEDFWERVESMLRLWKHGNEDEWSKNADPNVRYVYGEKVVTGREQAKHMFRKVKDEIRFTFEFKRVRIQGDTIEAKFEFRADRNGKPRSANATVTIRFEGDKVHDNDVKSQS | 0.42
43 | DEDFWRRLVTLMQKNDFDQLARLVDPNAEVTVGDKTYEGRENIQKMWHKLKKQFDHYEIKTYRVKGDKLDMDYVFVVNGQQVRAKVEMRVHNGRLVELRFDARNPDELDTVRRILS | 1.55
44 | DEDHASRQAKKFIDAMRSGDEELAKNLVDKDVTAIYGDRTVNGREQVMKMVKEFRNQADEITVDDMKVKNGRVVIHLKMDINGEQEVVIVILDIRNGRAKEISFERR | 1.27
45 | DEDHDVRVAENLLEAIRTGNEDEVTRLADENAELEIGDHRYHGREQVSSAAKRINDRADDISINEVHYTGDKLSVQMQMNVNGKNIVVDVVVVAHNGRVKTVRFQYTSEEDFKKFES | 0.538
46 | DEDHEAQRFFDHFEEVVQTGDPDQAKQLIDKNATAKYGDQEYHGWEDVHKHWLRLRRQADHIKFEVDDVRATNGRYEIQFVVIIDTNGNENTRRYRLQAQEDNGRLRVQNLTQQ | 1.49
47 | DEDHESRVVELLEEIVRKGDPDEVRRQADPDARVDYGDKRLHGRDFRKAAKIIEEMRVDHQQFTTYKTHNGRAQMLVTVEHNGERRDIQIIVHYRGDKMKEMRFDTG | -0.224
48 | DEDHIKTHAEELMNALSRGDEKRFVDLVDPNARFRIGDKEYKGSEQLHTLMREIHTEVDHIEVRHLRVRNGQVQATIRYDINGKTRSMTIHFEVENGRVKHMEVSSQ | 1.3
49 | DEDHKAREMMRRWEHNWRTGDPNKLANQFDPNATWDVGDHTIKGREQYAEQIKRNMEQADDVHITVKDVKREGETIVVRFHDVQNHNGQNRVTIVNARFFDDNGSFVMVSFKQE | -0.321
50 | DEDHLHRLVKEMVKVLQQGDPDRFMELADKDATAVIGDKRFHGRTQARKAVKEFTDTVDHIRIKTFNAHGDKVTIVVRLDHNGKNAILRIEFQVDNGRFKEVVFDPDHLQDLRR | 0.071
51 | DEDHLKDANRRVVHALEHGDPDEFMNMADKDVQIEIGDTVVEGSHKLKEWAEDLHNRVDHIEILKVDLQGDTLNLNVRMRSNGHNRNAVLHVRVHNGKIQSLRMKDN | 0.55
